B2: recombinant human TNFβ (Peprotech, Cat. No. 300-01B) (ligand, UniProt P01374 35-205, looked up)
chain: LPGVGLTPSAAQTARQHPKMHLAHSTLKPAAHLIGDPSKQNSLLWRANTDRAFLQDGFSLSNNSLLVPTSGIYFVYSQVVFSGKAYSPKATSSPLYLAHEVQLFSSQYPFHVPLLSSQKMVYPGLQEPWLHSMYHGAAFQLTQGDQLSTHTDGIPHLVLSPSTVFFGAFAL
B4: humanized scFv 16-22-H05-sc02 (structural graft, STR) (scFv)
scFv: MDIQMTQSPSSLSASVGDRVTIKCQASQSIFSGLAWYQQKPGKAPKLLIYGASKLASGVPSRFSGSGSGTEFTLTISGLQPADFATYYCQSYYYSSSSSDGSYAFGGGTKLTVLGGGGGSGGGGSGGGGSGGGGSEVQLVESGGGLVQPGGSLRLSCKASGIDFNNYGIGWVRQAPGKGLEWITYIYPGFAITNFANSVKGRFTISSDNSKNTVYLQMNSLRAEDTAVYYCARDPVYATSSGYFDLWGQGTLVTVSS
notes: also called 16-22-H5-sc02; 16-22-H04-sc02 [sic]
B6: humanized scFv 16-22-H05-sc04 (CDR grafted light chain, structural grafted heavy chain, CDR/STR) (scFv)
scFv: MDIQMTQSPSSLSASVGDRVTITCQASQSIFSGLAWYQQKPGKAPKLLIYGASKLASGVPSRFSGSGSGTEFTLTISGLQPADFATYYCQSYYYSSSSSDGSYAFGGGTKLTVLGGGGGSGGGGSGGGGSGGGGSEVQLVESGGGLVQPGGSLRLSCKASGIDFNNYGIGWVRQAPGKGLEWITYIYPGFAITNFANSVKGRFTISSDNSKNTVYLQMNSLRAEDTAVYYCARDPVYATSSGYFDLWGQGTLVTVSS
notes: also called 16-22-05-sc04

Legend:
[1] = biological target: T1, recombinant human TNFα (Peprotech, Cat. No. 300-01) (human, UniProt P01375 77-233); assay: cell-based or functional assay
[2] = biological target: T1, recombinant human TNFα (Peprotech, Cat. …); assay: SPR as in Example 2 under 2.1.1
[3] = biological target: B4; assay: competition ELISA, coated scFv, biotinylated TNFα, unlabeled TNFβ against unlabeled TNFα
Experimental: (§1) For this purpose, the scFvs were coated on a 96-well Maxisorp ELISA plate at a concentration of 1 μg/ml. […] To control precision of the response, the dose-response curves were analyzed in duplicate.

[4] = biological target: B6; assay: as above
Experimental: as §1

[5] = biological target: B4; assay: competition ELISA, coated scFv, biotinylated TNFα 75 ng/ml, unlabeled TNFβ varied
Experimental: as §1

[6] = biological target: B6; assay: as above
Experimental: as §1

[7] = biological target: T1, recombinant human TNFα (Peprotech, Cat. …); assay: SPR (MASS-1), TNFα immobilized, scFv 45 to 1.4 nM
Experimental: (§2) In a second step, for the best performing scFvs, Single Injection Cycle Kinetics (SiCK) were measured from a single injection cycle by simultaneously injecting six analyte samples at different concentrations into each of the eight parallel channels in the MASS-1 system. […] The apparent dissociation (k_d) and association (k_a) rate constants and the apparent dissociation equilibrium constant (K_D) were calculated with the MASS-1 analysis software (Analyzer, Sierra Sensors) using one-to-one Langmuir binding model and quality of the fits was monitored based on Chi^2, which is a measure for the quality of the curve fitting.

[8] = biological target: T1, recombinant human TNFα (Peprotech, Cat. …); assay: inhibition ELISA, blocking of TNFα binding to coated TNFRII-Fc
From the text: (§3) For the first inhibition ELISA, the extracellular domain of TNFRI fused to the Fc region of human IgG (R&D Systems, Cat. No. 372-RI) was coated on a 96-well Maxisorp ELISA at a concentration of […]. […] All subsequent steps were identical for both assays.

[9] = biological target: T1, recombinant human TNFα (Peprotech, Cat. …); assay: inhibition ELISA, blocking of TNFα binding to coated TNFRII-Fc; reference infliximab
[10] = biological target: T2, recombinant Cynomolgus monkey TNFα (Sino Biological, Cat. No. 90018-CNAE) (Cynomolgus monkey (Macaca fascicularis), UniProt P79337 77-233); assay: SPR (MASS-1), cyno TNFα immobilized, scFv 45 to 1.4 nM
T2 construct: also called Cynomolgus TNFα; cyno TNF
Experimental: as §2, with “fitting. The smaller the value for the Chi^2 the more accurate is the fitting to the one-to-one Langmuir binding model. For affinity screenings, results were deemed valid if the Chi^2 was below 10 for the concentration analyzed. In cases where several scFv concentrations were analyzed, results were deemed valid if the average Chi^2 over all the concentrations tested was below 10.” for “fitting.”

[11] = biological target: T1, recombinant human TNFα (Peprotech, Cat. …); assay: cell-based or functional assay; remark: listed apart in the source
[12] = biological target: T3, Rhesus monkey TNFα (R&D Systems, Cat. No. 1070-RM-025/CF) (Rhesus monkey (Macaca mulatta), UniProt P48094 77-233); assay: cell-based or functional assay
[13] = biological target: T2, recombinant Cynomolgus monkey TNFα …; assay: cell-based or functional assay
[14] = biological target: T1, recombinant human TNFα (Peprotech, Cat. …); assay: inhibition ELISA, blocking of TNFα binding to coated TNFRI-Fc
From the text: as §3

[15] = biological target: T3, Rhesus monkey TNFα (R&D Systems, Cat. …); assay: SPR (MASS-1), Rhesus TNFα immobilized, scFv 45 to 1.4 nM
Experimental: as §2, with “fitting. The smaller the value for the Chi^2 the more accurate is the fitting to the one-to-one Langmuir binding model. For affinity screenings, results were deemed valid if the Chi^2 was below 10 for the concentration analyzed. In cases where several scFv concentrations were analyzed, results were deemed valid if the average Chi^2 over all the concentrations tested was below 10.” for “fitting.”

[16] = biological target: B2; assay: competition ELISA, coated scFv, biotinylated TNFα, unlabeled TNFβ
Experimental: as §1

[17] = biological target: T1, recombinant human TNFα (Peprotech, Cat. …); assay: inhibition ELISA, blocking of TNFα binding to coated TNFRI-Fc; reference infliximab
From the text: as §3

[18] = biological target: T3, Rhesus monkey TNFα (R&D Systems, Cat. …); assay: SPR, TNFα immobilized, scFv injected
Experimental: as §2, with “fitting. The smaller the value for the Chi^2 the more accurate is the fitting to the one-to-one Langmuir binding model. For affinity screenings, results were deemed valid if the Chi^2 was below 10 for the concentration analyzed. In cases where several scFv concentrations were analyzed, results were deemed valid if the average Chi^2 over all the concentrations tested was below 10.” for “fitting.”

[19] = biological target: T2, recombinant Cynomolgus monkey TNFα …; assay: SPR, TNFα immobilized, scFv injected
Experimental: as §2, with “fitting. The smaller the value for the Chi^2 the more accurate is the fitting to the one-to-one Langmuir binding model. For affinity screenings, results were deemed valid if the Chi^2 was below 10 for the concentration analyzed. In cases where several scFv concentrations were analyzed, results were deemed valid if the average Chi^2 over all the concentrations tested was below 10.” for “fitting.”

T3 sequence (P48094 77-233 limits assumed): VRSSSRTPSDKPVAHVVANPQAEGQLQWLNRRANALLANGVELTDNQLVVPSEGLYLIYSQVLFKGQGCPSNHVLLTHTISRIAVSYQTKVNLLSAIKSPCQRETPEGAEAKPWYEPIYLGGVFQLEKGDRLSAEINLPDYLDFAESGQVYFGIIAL
T1 sequence (P01375 77-233 limits assumed): as the sequence (P48094 77-233 limits assumed) above, with T44R, N72T, L138R counted along it
T2 sequence (P79337 77-233 limits assumed): as the sequence (P48094 77-233 limits assumed) above, with L37V counted along it

B1: humanized IgG of clone 16-22-H05 (antibody, V domains shown)
VH: EVQLVESGGGLVQPGGSLRLSCKASGIDFNNYGIGWVRQAPGKGLEWITYIYPGFAITNFANSVKGRFTISSDNSKNTVYLQMNSLRAEDTAVYYCARDPVYATSSGYFDLWGQGTLVTVSS
VL: DIQMTQSPSSLSASVGDRVTIKCQASQSIFSGLAWYQQKPGKAPKLLIYGASKLASGVPSRFSGSGSGTEFTLTISGLQPADFATYYCQSYYYSSSSSDGSYAFGGGTKLTVLG
notes: Transiently expressed in CHO S cells and purified on Protein A; also called 16-22-H5-IgG
[1]
  Potency IC50 (nM), L929 assay: 0.02 nM
[2]
  Kd: 0.0417 nM
  koff: 7.92e-05 s⁻¹
  kon: 1.9e+06 M⁻¹ s⁻¹

## B2
[3]
  Target selectivity, rel. IC50 of TNFβ vs TNFα: > 10000 fold
[4]
  Target selectivity, rel. IC50 of TNFβ vs TNFα: > 10000 fold
[5]
  IC50: > 1250 µg/mL
[6]
  IC50: > 1250 µg/mL

B3: humanized single-chain diabody of clone 16-22-H05 (other)
chain: MDIQMTQSPSSLSASVGDRVTIKCQASQSIFSGLAWYQQKPGKAPKLLIYGASKLASGVPSRFSGSGSGTEFTLTISGLQPADFATYYCQSYYYSSSSSDGSYAFGGGTKLTVLGGGGGSEVQLVESGGGLVQPGGSLRLSCKASGIDFNNYGIGWVRQAPGKGLEWITYIYPGFAITNFANSVKGRFTISSDNSKNTVYLQMNSLRAEDTAVYYCARDPVYATSSGYFDLWGQGTLVTVSSGGGGSGGGGSGGGGSGGGGSDIQMTQSPSSLSASVGDRVTIKCQASQSIFSGLAWYQQKPGKAPKLLIYGASKLASGVPSRFSGSGSGTEFTLTISGLQPADFATYYCQSYYYSSSSSDGSYAFGGGTKLTVLGGGGGSEVQLVESGGGLVQPGGSLRLSCKASGIDFNNYGIGWVRQAPGKGLEWITYIYPGFAITNFANSVKGRFTISSDNSKNTVYLQMNSLRAEDTAVYYCARDPVYATSSGYFDLWGQGTLVTVSS
notes: Single-chain diabody VLA-L1-VHB-L2-VLB-L3-VHA, bivalent for TNFα; L1 and L3 are G4S, L2 is (G4S)4; also called 16-22-H5-scDb; scDb
[1]
  Potency IC50 (nM), L929 assay: 0.01 nM
[2]
  Kd: 0.0215 nM
  koff: 2.02e-05 s⁻¹
  kon: 940000 M⁻¹ s⁻¹

## B4
[7]
  Kd: 0.045 nM
  koff: 4.3e-05 s⁻¹
  kon: 960000 M⁻¹ s⁻¹
[8]
  IC50: 0.02 µg/mL
[9]
  rel. IC50 (IC50 infliximab / IC50 scFv, ng/mL): 5.7 fold
  rel. IC90 (IC90 infliximab / IC90 scFv, ng/mL): 3.3 fold
[10]
  Kd: 0.2 nM
  koff: 9.6e-05 s⁻¹
  kon: 490000 M⁻¹ s⁻¹
[11]
  Potency in L929 assay, rel. IC50 (IC50 infliximab / IC50 scFv, ng/ml): 13.1 fold
  Potency in L929 assay, rel. IC90 (IC90 infliximab / IC90 scFv, ng/ml): 12.6 fold
  Species-specificity IC50 [ng/ml], L929 assay, human TNFα: 0.6 ng/mL
[12]
  Species-specificity IC50 [ng/ml], L929 assay, Rhesus TNFα: 3 ng/mL
[13]
  Species-specificity IC50 [ng/ml], L929 assay, cyno TNFα: 2.9 ng/mL
[14]
  IC50: 0.0139 µg/mL
[15]
  Kd: 0.23 nM
  koff: 0.00015 s⁻¹
  kon: 670000 M⁻¹ s⁻¹
[16]
  binding result: no binding (tested: 1250 µg/ml)
[17]
  rel. IC50 (IC50 infliximab / IC50 scFv, ng/mL): 3.5 fold
  rel. IC90 (IC90 infliximab / IC90 scFv, ng/mL): 2.4 fold
[18]
  fold difference in affinity against human TNFα: ~5 fold
[19]
  fold difference in affinity against human TNFα: ~5 fold

B5: 16-22-H5-scFv (scFv format of Examples 3 to 7) (scFv)
chain: MDIQMTQSPSSLSASVGDRVTIKCQASQSIFSGLAWYQQKPGKAPKLLIYGASKLASGVPSRFSGSGSGTEFTLTISGLQPADFATYYCQSYYYSSSSSDGSYAFGGGTKLTVLGGGGGSGGGGSGGGGSGGGGSEVQLVESGGGLVQPGGSLRLSCKASGIDFNNYGIGWVRQAPGKGLEWITYIYPGFAITNFANSVKGRFTISSDNSKNTVYLQMNSLRAEDTAVYYCARDPVYATSSGYFDLWGQGTLVTVSS
[1]
  Potency IC50 (nM), L929 assay: 0.03 nM
[2]
  Kd: 0.0379 nM
  koff: 3.38e-05 s⁻¹
  kon: 893000 M⁻¹ s⁻¹

## B6
[7]
  Kd: 0.11 nM
  koff: 7.1e-05 s⁻¹
  kon: 680000 M⁻¹ s⁻¹
[8]
  IC50: 0.0326 µg/mL
[9]
  rel. IC50 (IC50 infliximab / IC50 scFv, ng/mL): 3.5 fold
  rel. IC90 (IC90 infliximab / IC90 scFv, ng/mL): 1.5 fold
[11]
  Potency in L929 assay, rel. IC50 (IC50 infliximab / IC50 scFv, ng/ml): 14.6 fold
  Potency in L929 assay, rel. IC90 (IC90 infliximab / IC90 scFv, ng/ml): 13.1 fold
  Species-specificity IC50 [ng/ml], L929 assay, human TNFα: 0.5 ng/mL
[12]
  Species-specificity IC50 [ng/ml], L929 assay, Rhesus TNFα: 2.9 ng/mL
[13]
  Species-specificity IC50 [ng/ml], L929 assay, cyno TNFα: 3.5 ng/mL
[14]
  IC50: 0.0177 µg/mL
[16]
  binding result: no binding (tested: 1250 µg/ml)
[17]
  rel. IC50 (IC50 infliximab / IC50 scFv, ng/mL): 2.8 fold
  rel. IC90 (IC90 infliximab / IC90 scFv, ng/mL): 2.1 fold

Source: patent US12209122
